# “Also recorded” adds a separate entry of the source.
# Tested on: mevalonate biosynthetic pathway
# Assay: Mevalonate production with synthetic scaffolds in E. coli
# Assay type: cell-based, Escherichia coli
# Description: The scalability of the co-recruitment strategy was tested by building separate scaffold devices capable of co-localizing multiple enzymes. Scaffolds provide a means for physically separating the binding elements for design control from the catalytic activities. Thus, the only modification to the enzyme necessary for gaining modular control over complex formation is the addition of a single interaction ligand to each enzyme. A peptide ligand specific for a corresponding protein-protein interaction domain was recombined to the C-terminus of each enzyme of the mevalonate biosynthetic pathway (FIG. 3a). Scaffolds were built by tethering together, via flexible nine amino acid glycine-serine linkers, different numbers of three protein-protein interaction domains from metazoan genomes: the GTPase Binding Domain (GBD) from the actin polymerization switch N-WASP, the SH3 domain, and the PSD95/DlgA/Zo-1 (PDZ) domain from the adaptor protein syntrophin (see Table 1, below).
# By varying the number of repeats of these interaction domains, the ratio of individual pathway enzymes co-localized to the resultant complex could be controlled. Scaffolds were built with a single GBD domain for recruiting AtoB and varying numbers of SH3 and PDZ domains for recruiting HMGS and HMGR, respectively. A matrix of scaffolds was made with the architecture (N-terminal to C-terminal) of GBDxSH3yPDZz where x=1 and y and z were varied to be 1, 2, or 4. For separate inducible control, the pathway enzymes were placed under transcriptional control of the tetracycline-inducible promoter (Ptet), and the scaffolds were under transcriptional control of the arabinose-inducible promoter (PBAD). In an effort to lower the metabolic load imposed on the production host, mevalonate production experiments were conducted with low expression levels of the mevalonate pathway enzymes (7 nM aTc) and a high scaffold expression level (250 μM arabinose) to improve pathway efficiency.
molecule,measurement,setting,value
"G1S2P2: optimized scaffold polypeptide with 1, 2, and 2 repeats of GBD, SH3, and PDZ domains (SEQ ID NO:37) (protein) MTKADIGTPSNFQHIGHVGWDPNTGFDLNNLDPELKNLFDMCGISEAQLKDRETSKVIYDFIEKTGGVEAVKNELRRQAPGSGSGSGGSMAEYVRALFDFNGNDEEDLPFKKGDILRIRDKPEEQWWNAEDSEGKRGMIPVPYVEKYGSGSGSGGSMAEYVRALFDFNGNDEEDLPFKKGDILRIRDKPEEQWWNAEDSEGKRGMIPVPYVEKYGSGSGSGGSMLQRRRVTVRKADAGGLGISIKGGRENKMPILISKIFKGLAADQTEALFVGDAILSVNGEDLSSATHDEAVQALKKTGKEVVLEVKYMKEVSPYFKGSGSGSGGSMLQRRRVTVRKADAGGLGISIKGGRENKMPILISKIFKGLAADQTEALFVGDAILSVNGEDLSSATHDEAVQALKKTGKEVVLEVKYMKEVSPYFKGS",change in mevalonate production with increasing concentrations of glycerol,"glycerol as carbon source, increases saturated at approximately 4% glycerol",improved dramatically; also recorded: significant increases
same,fold increase in mevalonate production compared to the unscaffolded pathway (G0S0P0),"low pathway enzyme expression (7 nM aTc), high scaffold expression (250 μM arabinose), 4% glycerol",77 fold
same,fold more mevalonate than G0S0P0-GFP,"pathway under pTET, scaffold under pBAD, control expresses GFP instead of scaffold",77 fold
